Laboratory results as given in article PMC12041258.
Read-outs that look alike come from different tables or passages of the source.

What was measured:
[1] = target: C. crescentus DriD(78-327) (C. crescentus); assay: SEC
[2] = target: C. crescentus DriD(78-327) (C. crescentus); assay: SEC; remark: listed apart in the source
[3] = target: C. crescentus DriD DNABD, DriD(1-70) (C. crescentus); assay: MST

Substance	stoichiometry N [1]	stoichiometry N [2]	Kd [3]
C. crescentus DriD(78-327) (domain or fragment)	2	2	–
His-tag free C. crescentus DriD(78-327) (domain or fragment)	–	–	15 µM
